Results published in US20190330277A1 (PIRBRIGHT INSTITUTE, published 2019).

B1: MPE8 antibody (antibody, V domains shown)
VH: EVQLVESGGGLVKPGGSLRLSCAASGFTFSSYSMNWVRQAPGKGLEWVSSISASSSYSDYADSAKGRFTISRDNAKTSLFLQMNSLRAEDTAIYFCARARATGYSSITPYFDIWGQGTLVTVSS
VL: QSVVTQTPSVSGAPGQRVTISCTGSSSNIGAGYDVHWYQQLPGTAPKLLIYDNNNRPSGVPDRFSASKSGTSASLAITGLQAEDEADYYCQSYDRNLSGVFGTGTKVTVL
notes: also called mAb MPE8
B2: D25 antibody (antibody, V domains shown)
VH: QVQLVQSGAEVKKPGSSVMVSCQASGGPLRNYIINWLRQAPGQGPEWMGGIIPVLGTVHYAPKFQGRVTITADESTDTAYIHLISLRSEDTAMYYCATETALVVSTTYLPHYFDNWGQGTLVTVSS
VL: DIQMTQSPSSLSAAVGDRVTITCQASQDIVNYLNWYQQKPGKAPKLLIYVASNLETGVPSRFSGSGSGTDFSLTISSLQPEDVATYYCQQYDNLPLTFGGGTKVEIK
notes: also called mAb D25

Key:
Experiment in all cases: ELISA, variant from culture supernatant on Ni-NTA plate
[1] = molecular target: T1, RB94 site 0 hRSV DS-Cav1-BZGJ9 Long FdPL
T1 construct: also called sc-v6
Description: (§1) Initial assessment of all constructs were performed using a 96-well microplate format for high throughput expression followed by an ELISA-based antigenic evaluation as described previously 17. […] Plasmid DNA and TrueFect-Max (United BioSystems, MD) were mixed and added to the growing cells, and the 96-well plate incubated at 37° C., 5% CO2. One day post transfection, enriched medium (high glucose DMEM plus 25% ultra-low IgG fetal bovine serum, 2× nonessential amino acids, 1× glutamine) was added to each well, and the 96-well plate was returned to the incubator for continuous culture.

KXlinker2 = molecular target: T2, KXlinker2
T2 construct: also called sc-v35
Description: as §1

391-2-DS-Cav1-IP-5 = molecular target: T3, 391-2-DS-Cav1-IP-5
T3 construct: also called sc-v19
Description: as §1

[2] = molecular target: T4, 391-2-DS-Cav1-BZGJ9 Long K226L
T4 construct: also called sc-v12
Description: as §1

391-2wt_F-SC_12R core = molecular target: T5, 391-2wt_F-SC_12R core
T5 construct: also called sc-v28
Description: as §1

[3] = molecular target: T6, RB94 site 0 hRSV bovSurf DS-Cav1 Long FdPL
T6 construct: also called sc-v14
Description: as §1

[4] = molecular target: T7, 391-2-site 0 hRSV DSCav1-BZGJ9 Long
T7 construct: also called sc-v9
Description: as §1

[5] = molecular target: T8, 391-2 hu/bov-DS-Cav1-BZGJ9 Long
T8 construct: also called sc-v18
Description: as §1

[6] = molecular target: T9, sc9-10_DS-CAV1_bRSV(RB94)_Fd_hp2_ig1
T9 construct: also called sc-v3
Description: as §1

391-2-DS-Cav1-IP-4 = molecular target: T10, 391-2-DS-Cav1-IP-4
T10 construct: also called sc-v32
Description: as §1

391-2-DS-Cav1-BZGJ9 Long = molecular target: T11, 391-2-DS-Cav1-BZGJ9 Long
T11 construct: also called sc-v17
Description: as §1

[7] = molecular target: T12, RB94 sc9 DS-CAV1 A149C-Y458C L373R Long S190V
T12 construct: also called DS2-v30
Description: as §1

[8] = molecular target: T13, RB94 hu/bov DS-CAV1 A149C-Y458C Long
T13 construct: also called DS2-v7
Description: as §1

[9] = molecular target: T14, 391-2-DS-Cav1-sc9deleteFS 99C-361C
T14 construct: also called DS2-v15
Description: as §1

[10] = molecular target: T15, 391-2-DS-Cav1-sc9deleteFS 100C-362C
T15 construct: also called DS2-v21
Description: as §1

[11] = molecular target: T16, 391-2-DS-Cav1_ sc9_S485C-A490C
T16 construct: also called DS2-v28
Description: as §1

[12] = molecular target: T17, RB94 dscav1T369C-T455C Long S190V
T17 construct: also called DS2-v18
Description: as §1

[13] = molecular target: T18, RB94 sc9 DS-CAV1 A149C-Y458C L373R Long
T18 construct: also called DS2-v22
Description: as §1

[14] = molecular target: T19, 391-2-DS-Cav1-sc9deleteFS 98C-361C
T19 construct: also called DS2-v8
Description: as §1

[15] = molecular target: T20, RB94 sc9 DS-CAV1 A149C-Y458C L373R
T20 construct: also called DS2-v20
Description: as §1

[16] = molecular target: T21, 391-2-DS-Cav1-sc9 100C-361C
T21 construct: also called DS2-v19
Description: as §1

[17] = molecular target: T22, RB94 DS-CAV1 T369C-T455C Long
T22 construct: also called DS2-v32
Description: as §1

[18] = molecular target: 391-2-DS-Cav1_ I28C-G464C
Description: as §1

[19] = molecular target: T23, 391-2-DS-Cav1-sc9deleteFS 100C-361C
T23 construct: also called DS2-v29
Description: as §1

[20] = molecular target: T24, RB94 sc9 DS-CAV1 N183GC-N428C L373R Long S190V
T24 construct: also called DS2-v13
Description: as §1

[21] = molecular target: T25, RB94 sc9 DS-CAV1 A149C-Y458C L373R Long K226L
T25 construct: also called DS2-v24
Description: as §1

[22] = molecular target: T26, 391-2-DS-Cav1_ S398C-S485C
T26 construct: also called DS2-v25
Description: as §1

[23] = molecular target: T27, 391-2-DS-Cav1_ sc9_T449C-V459C
T27 construct: also called DS2-v31
Description: as §1

[24] = molecular target: T28, 391-2-DS-Cav1-sc9deleteFS 99C-362C
T28 construct: also called DS2-v16
Description: as §1

[25] = molecular target: T29, 391-2-DS-Cav1_ sc9_S398C-S485C
T29 construct: also called DS2-v23
Description: as §1

[26] = molecular target: T30, 391-2-DS-Cav1_ sc9_I395C-A490C
T30 construct: also called DS2-v27
Description: as §1

| Binder | ELISA binding value [1] | ELISA binding value (KXlinker2) | ELISA binding value (391-2-DS-Cav1-IP-5) | ELISA binding value [2] | ELISA binding value (391-2wt_F-SC_12R core) | ELISA binding value [3] | ELISA binding value [4] | ELISA binding value [5] | ELISA binding value [6] | ELISA binding value (391-2-DS-Cav1-IP-4) | ELISA binding value (391-2-DS-Cav1-BZGJ9 Long) | ELISA binding value [7] | ELISA binding value [8] | ELISA binding value [9] | ELISA binding value [10] | ELISA binding value [11] | ELISA binding value [12] | ELISA binding value [13] | ELISA binding value [14] | ELISA binding value [15] | other results |
| --- | --- | --- | --- | --- | --- | --- | --- | --- | --- | --- | --- | --- | --- | --- | --- | --- | --- | --- | --- | --- | --- |
| B1 | 2.2 | 0.361 | 1.41 | 1.78 | 0.646 | 1.84 | 2.08 | 1.32 | 2.21 | 0.541 | 1.45 | 0.0477 | 0.29 | 0.229 | 0.0757 | 0.0579 | 0.371 | 0.0692 | 0.43 | 0.154 | ELISA binding value [16]: 0.173; ELISA binding value [17]: 0.0667; ELISA binding value [18]: 0.0815; ELISA binding value [19]: 0.0592; ELISA binding value [20]: 0.155; ELISA binding value [21]: 0.0872; ELISA binding value [22]: 0.0824; ELISA binding value [23]: 0.1; ELISA binding value [24]: 0.2; ELISA binding value [25]: 0.0849; ELISA binding value [26]: 0.0919 |
| B2 | 2.16 | 0.321 | 1.28 | 1.92 | 0.709 | 1.7 | 2.02 | 1.39 | 2.43 | 0.333 | 1.3 | 0.133 | 0.274 | 0.198 | 0.16 | 0.136 | 0.182 | 0.158 | 0.271 | 0.175 | ELISA binding value [16]: 0.181; ELISA binding value [17]: 0.129; ELISA binding value [18]: 0.139; ELISA binding value [19]: 0.133; ELISA binding value [20]: 0.206; ELISA binding value [21]: 0.144; ELISA binding value [22]: 0.141; ELISA binding value [23]: 0.133; ELISA binding value [24]: 0.197; ELISA binding value [25]: 0.144; ELISA binding value [26]: 0.136 |
